Measured values as given in IntAct's records for PubMed 16228008.

B1: E3 ubiquitin-protein ligase CBL-B (Homo sapiens), Q13191-1 (parent)
chain: MANSMNGRNPGGRGGNPRKGRILGIIDAIQDAVGPPKQAAADRRTVEKTWKLMDKVVRLCQNPKLQLKNSPPYILDILPDTYQHLRLILSKYDDNQKLAQLSENEYFKIYIDSLMKKSKRAIRLFKEGKERMYEEQSQDRRNLTKLSLIFSHMLAEIKAIFPNGQFQGDNFRITKADAAEFWRKFFGDKTIVPWKVFRQCLHEVHQISSGLEAMALKSTIDLTCNDYISVFEFDIFTRLFQPWGSILRNWNFLAVTHPGYMAFLTYDEVKARLQKYSTKPGSYIFRLSCTRLGQWAIGYVTGDGNILQTIPHNKPLFQALIDGSREGFYLYPDGRSYNPDLTGLCEPTPHDHIKVTQEQYELYCEMGSTFQLCKICAENDKDVKIEPCGHLMCTSCLTAWQESDGQGCPFCRCEIKGTEPIIVDPFDPRDEGSRCCSIIDPFGMPMLDLDDDDDREESLMMNRLANVRKCTDRQNSPVTSPGSSPLAQRRKPQPDPLQIPHLSLPPVPPRLDLIQKGIVRSPCGSPTGSPKSSPCMVRKQDKPLPAPPPPLRDPPPPPPERPPPIPPDNRLSRHIHHVESVPSRDPPMPLEAWCPRDVFGTNQLVGCRLLGEGSPKPGITASSNVNGRHSRVGSDPVLMRKHRRHDLPLEGAKVFSNGHLGSEEYDVPPRLSPPPPVTTLLPSIKCTGPLANSLSEKTRDPVEEDDDEYKIPSSHPVSLNSQPSHCHNVKPPVRSCDNGHCMLNGTHGPSSEKKSNIPDLSIYLKGDVFDSASDPVPLPPARPPTRDNPKHGSSLNRTPSDYDLLIPPLGEDAFDALPPSLPPPPPPARHSLIEHSKPPGSSSRPSSGQDLFLLPSDPFVDLASGQVPLPPARRLPGENVKTNRTSQDYDQLPSCSDGSQAPARPPKPRPRRTAPEIHHRKPHGPEAALENVDAKIAKLMGEGYAFEEVKRALEIAQNNVEVARSILREFAFPPPVSPRLNL
partner: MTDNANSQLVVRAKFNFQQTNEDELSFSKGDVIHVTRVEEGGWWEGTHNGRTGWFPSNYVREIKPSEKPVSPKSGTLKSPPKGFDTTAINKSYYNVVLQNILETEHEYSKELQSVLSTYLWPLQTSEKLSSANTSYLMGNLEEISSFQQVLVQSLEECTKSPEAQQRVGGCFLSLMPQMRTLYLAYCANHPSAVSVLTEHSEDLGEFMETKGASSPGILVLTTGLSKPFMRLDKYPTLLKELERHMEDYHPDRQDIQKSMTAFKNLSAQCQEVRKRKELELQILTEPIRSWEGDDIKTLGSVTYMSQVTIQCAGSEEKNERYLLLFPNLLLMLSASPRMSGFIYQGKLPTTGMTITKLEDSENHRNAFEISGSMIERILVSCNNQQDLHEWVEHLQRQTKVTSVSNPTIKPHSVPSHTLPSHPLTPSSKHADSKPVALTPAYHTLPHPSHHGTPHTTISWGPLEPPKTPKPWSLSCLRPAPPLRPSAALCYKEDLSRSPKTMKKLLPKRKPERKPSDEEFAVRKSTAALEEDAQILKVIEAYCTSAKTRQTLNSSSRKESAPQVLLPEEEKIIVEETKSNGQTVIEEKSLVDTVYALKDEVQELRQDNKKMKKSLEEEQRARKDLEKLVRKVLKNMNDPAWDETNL

Variants of: B1
Details: with arhg7_rat Arhgef7, O55043

| Variant | effect of a mutation on the interaction |
| --- | --- |
| R904A | decreasing interaction strength |
